Experiments:
Test in all cases: pull-down
QKI5 = target: T1, QKI5 (human, UniProt Q96PU8 1-341)
T1 sequence: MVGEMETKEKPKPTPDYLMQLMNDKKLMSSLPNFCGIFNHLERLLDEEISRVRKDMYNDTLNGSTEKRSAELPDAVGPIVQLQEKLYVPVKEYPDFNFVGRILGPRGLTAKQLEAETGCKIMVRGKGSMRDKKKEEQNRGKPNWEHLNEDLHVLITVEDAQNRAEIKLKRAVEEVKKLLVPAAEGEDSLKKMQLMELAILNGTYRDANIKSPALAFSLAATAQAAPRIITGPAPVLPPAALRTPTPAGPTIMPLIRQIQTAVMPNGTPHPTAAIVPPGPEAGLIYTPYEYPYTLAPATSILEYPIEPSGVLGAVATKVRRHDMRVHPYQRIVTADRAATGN

QKI6 = target: T2, QKI6 (human, UniProt Q96PU8-9 1-319)
T2 sequence: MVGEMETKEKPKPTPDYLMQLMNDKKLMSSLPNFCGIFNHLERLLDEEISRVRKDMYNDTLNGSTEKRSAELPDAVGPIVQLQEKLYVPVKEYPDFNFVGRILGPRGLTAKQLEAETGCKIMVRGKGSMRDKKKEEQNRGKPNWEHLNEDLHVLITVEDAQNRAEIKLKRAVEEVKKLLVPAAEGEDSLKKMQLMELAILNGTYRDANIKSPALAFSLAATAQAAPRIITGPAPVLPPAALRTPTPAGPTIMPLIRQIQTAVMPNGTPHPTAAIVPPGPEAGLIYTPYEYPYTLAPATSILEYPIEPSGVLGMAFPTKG

QKI7 = target: T3, QKI7 (human, UniProt Q96PU8-6 1-325)
T3 sequence: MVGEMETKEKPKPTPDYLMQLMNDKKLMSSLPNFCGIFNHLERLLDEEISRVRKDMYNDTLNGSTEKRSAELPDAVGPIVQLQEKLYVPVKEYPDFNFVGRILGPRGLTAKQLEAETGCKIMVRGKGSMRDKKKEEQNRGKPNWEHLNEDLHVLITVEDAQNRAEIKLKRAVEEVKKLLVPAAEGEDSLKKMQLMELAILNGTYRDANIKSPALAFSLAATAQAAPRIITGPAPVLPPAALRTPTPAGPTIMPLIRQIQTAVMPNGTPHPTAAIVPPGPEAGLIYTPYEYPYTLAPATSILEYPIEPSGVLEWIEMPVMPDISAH

Measured: binding result

B1: m7G-Oligo, 60-mer (ssRNA)
RNA: CCAAUAAAAUAUUAACCACCAAUAAAAUAUUAACCAAGAUCCACCAAUAAAAUAUUAACC
modifications: N7-methylguanosine at G38 (the only G)
binds: QKI5 | QKI6 | QKI7

Source: article PMC10527483
